Target: Src-YN (mouse)
Experiment: split reporter (BiFC, NanoBiT); BiFC with YFP fragments YC (155-238) and YN (1-154) in co-transfected CHO-K1 cells on fibronectin-coated coverslips; whole cells, fixed (also live cells and TIRFM), wide-field fluorescence; cells scored as background, ER + punctate or only punctate

- % of cells with BiFC signal (ER + punctate): 86%
- % of cells with BiFC signal (only punctate): 14%
Substance: YC-PTP1BWT (from UniProt P18031 1-435) (enzyme)
